# Measured values reported in the DeepSol protein solubility set.
# Assay: soluble on expression in E. coli; label from the status in PepcDB or PDB records
row,Sequence,soluble on expression in E. coli
1,MANVEAIPGYLTATFPTLPIEIKDYVSAILKENSDEITSLDEVMDAVGEHLQASVENLCEVGAKNACQQLLKLLHGDNLPKAIKQQEATTKRLEQTVDMAAENQNFEALQSIWKVQTRDTPTTVDKKKLAKAEDRAAAKAEARADAPVERKKKKNEPSATASQAPIRDSGARGANSKDIKLESVDISIGTKQLLSCADVTMAFGRRYGLVGRNGIGKTTLLKMISSQQLKIPAGISMLSVEQEVEGDDTLVLDAVLMSDTKRQTLLDREKTLQSRINKDNINDAEKTKWNDELSKLYIEMEALQLDKAPARASSLLYGLGFTPDEQKRPTKEFSGGWRMRVALARALFVKPDLLLLDEPTNMLDMRAVYWLEGHLQGWEGTILTVSHDRKFLNEICTDIVHLHTRRLDHYKGNYDQFEKTMKEKLTQQQREYESQQQLRQHTQEFIDKFRYNAKRAPMVQSRIKMLEKLPVLLPVELESDIHFKFPECEVLSNPVLQLDEVSFRYNEDSPYLFRKLNLGTHANSRICIVGENGAGKTTLLKLLLDDLQPSVGLRNVNRRIRIAYFTQHHVDQLDMETSAIEVLMKNHPGKTQEDYRAALGRFGLAGDMALQSVETLSGGQKSRLAFANLALMQPNYLILDEPTNHLDVETVEALGKALNVFNGGVVLVSHDEQLIELVCKELWVVKDRMVTTLEGGLEEYRKQVYKQLQLTA,not soluble
2,MAPASILCCDTDNRRPQMKLTGGCYCGALRYEAEGEPMLKAQCHCRACQSYSGGAPNLFMVMPAAGFRYVKGTPKSFRLEDRPDRVTRDFCATCGTGVASHRPGLPAVILKIGTLDDPALFKGPRAAVFAAEKQAFHIIPEGVHAFDGLPPT,not soluble
3,MAPATERNRDAILAVLKDELRSPGTVLEIASGTGEHGAYFAPQLPDYFWQPSDPNEESRRSIAAWRSHVNAPNLGEAIAIDVTRSDWVESVPEFPQPVVAIAAINLIHISPWEATLGLFAGAKQLLSVDGLIYLYGAYKRGGQHTAPSNEAFDASLQARNPAWGARNLEDVTAVAEAEQFRLDRIVEMPSNNLSVCFRAIALEHHHHHH,not soluble
4,MAPSCLKMAHMRLLLTSFGHDHIRDFVRGTVAYIPDATRLFADSPEAAPFMETERNMLREHGLSIRELPISTSTPEEVDRVLGEVDGVYVAGGETFDLMWLLRSTGNDEVLIKHVRAGLPYIGTSAGAVIAGPSIEPISFLDSPDVAPNLSDYSGLGLCEHVVVPHAGGTIPQFPIDVFAETVRTYGAEFPLVLLKDGQALLIDDHGVHLILEHHHHHH,soluble
5,MAPSGGQEAQICDSETFGDSDFVVVANRLPVDLERLPDGSTTWKRSPGGLVTALEPVLRRRRGAWVGWPGVNDDGAEPDLHVLDGPIIQDELELHPVRLSTTDIAQYYEGFSNATLWPLYHDVIVKPLYHREWWDRYVDVNQRFAEAASRAAAHGATVWVQDYQLQLVPKMLRMLRPDLTIGFFLHIPFPPVELFMQMPWRTEIIQGLLGADLVGFHLPGGAQNFLILSRRLVGTDTSRGTVGVRSRFGAAVLGSRTIRVGAFPISVDSGALDHAARDRNIRRRAREIRTELGNPRKILLGVDRLDYTKGIDVRLKAFSELLAEGRVKRDDTVVVQLATPSRERVESYQTLRNDIERQVGHINGEYGEVGHPVVHYLHRPAPRDELIAFFVASDVMLVTPLRDGMNLVAKEYVACRSDLGGALVLSEFTGAAAELRHAYLVNPHDLEGVKDGIEEALNQTEEAGRRRMRSLRRQVLAHDVDRWAQSFLDALAGAHPRGQG,not soluble
6,MAPSQAPSRDRAGQEDEDRWEARGDRKARKPLVEKKRRARINESLQELRLLLAGTEVQAKLENAEVLELTVRRVQGALRGRAREREQLQAEASERFAAGYIQCMHEVHTFVSTCQAIDATVSAELLNHLLESMPLREGSSFQDLLGDSLAGLPGGSGRSSWPPGGSPESPLSSPPGPGDDLCSDLEEIPEAELNRVPAEGPDLVSTSLGSLTAARRAQSVWRPW,not soluble
7,MAPTMNNGWMDSLSWIKSETPENSVVTCWWDNGHIYTWATRKMVTFDGGSQNTPRAYWVGHAFSTSDENLSVGILRMLATSGDSAYDDDSILIKKTGSIKDTVDILNKILPLTRTEAKASLVNNYDLTDAEAEEVLDLTHPKVTNPDYLITYNRMTSIASVWSMFGNWNFSLPASTENSDREMGLEHHHHHH,soluble
8,MAPTNKDGDVATVKAVDVLKQKAGAHHCLGNVHANLPVNKVTVHPLVLLSVVDHFNRVSKTQSVKRVVGVLLGSMKKDKTLDIGNSFAVPFDEDDKDKSTWFLDMDYLESMYGMFYKVAAKEKIVGWYHTGPKLHKNDIAINEQLKRFCPNPVLVIIDAEPKNIGLPTEAYIEVQEVHDDGTPPIKTFEHVPSDIGAEEAEEVGVEHLLRDIKDQTAGTLSQRITDQLMGLRGLQSQLESIEKYLHDIVRGTLPVNHHVIYYVQEVLNLLPDVTHPDYIVSQNVQTNDQLMCVYMGSLVRSVVALHNLIDNKISLQKAEKEQETGEAEKKKDEKDKKDKKDEKKDEKKEKDSKSSTPNTPKK,not soluble
9,MAQFSIFPEQNSLQDLLNIHSVQEDTQYKSMGIYDLKTCEIPMRPPTHQNPAQKEHNTMEDEMMAVLNSFSRRIEIMSAPEPKAFRYYFEISPPPKPEAPKSQLGLGDLSEESYPLTPEPIQLDTCLTWSPVELQFDPFAEPEPIFYNEEMDSGPTPEPIPDIFESPRSEVEAVKMFRSEVIYEDFAEE,not soluble
10,MAQHEVITRGGDAFLLKLRESALSSGSMSEEQFFLLIGISSIHSDRVILAMKDYLVSGHSRKDVCEKYQMNNGYFSTTLGRLTRLNVLVARLAPYYTDSVSAIAEAASL,soluble
11,MAQKSALIILAAEGAEEMEVIITGDVLARGEIRVVYAGLDGAEPVKCARGAHIVPDVKLEDVETEKFDIVILPGGQPGSNTLAESLLVRDVLKSQVESGGLIGAICAAPIALLSHGVKAELVTSHPSVKEKLEKGGYKYSEDRVVVSGKIITSRGPGTAFEFALKIVELLEGKDKATSLIAPMLLKL,not soluble
12,MAQVFNFSSGPAMLPAEVLKLAQQELCDWHGLGTSVMEISHRGKEFIQVAEEAEQDFRDLLNIPSNYKVLFCHGGGRGQFAGVPLNLLGDKTTADYVDAGYWAASAIKEAKKYCAPQIIDAKITVDGKRAVKPMREWQLSDNAAYLHYCPNETIDGIAIDETPDFGPEVVVTADFSSTILSAPLDVSRYGVIYAGAQKNIGPAGLTLVIVREDLLGKAHESCPSILDYTVLNDNDSMFNTPPTFAWYLSGLVFKWLKAQGGVAAMHKINQQKAELLYGVIDNSDFYRNDVAQANRSRMNVPFQLADNTLDKVFLEESFAAGLHALKGHRVVGGMRASIYNAMPIEGVKALTDFMIDFERRHG,not soluble
13,MARDGAVYACQSCGAVQTKWSGQCSACQSWNTLVEEVSAKPPGALSATKATRVRGLQFTGLESETAPPPRILTGVDEFDRVCGGGVVPGSALLIGGDPGVGKSTLLLQVCASAAARGVSCAYISGEEAVEQIRGRADRMGLAKANVSLAAETALRDILDGLKRDNFDLVVIDSIQTMWSDAHEAGPGTVTQVRACATELVRLAKKKGVAILLVGHVTKDGQIAGPRVVEHLVDAVLSFEGERGYPFRILRGAKNRFGATDEIGVFEMGDVGLREVKNPSALFLNEGGERAAGAAVFAGIEGSRPVLVEFQALVAPSAYGTPRRAVVGWDSGRLAMVLAVLEARCGLGFGDKDVYLNVAGGLRITEPAADLAAAAALASSALDVALPQDCVVFGELSLSGEVRPVSRMETRLKEAAKLGFGRALGPLAGLPEGGGALPVAGVARLTDAVRRIGDEIWTSLT,soluble
14,MARGIWGVDSAQVVTDQLFQCVRTELGYPKFWGRYLSEVPNVSEGLTRDEIVRIRNYGVKVLPIYNAFREAVGYANGQVAARNAVFHARRLGIPKNKLLFANIEDFFAVDAAWIAAWVETLYPTGYRPGLYADPTKGDFAAAYCEAVSRNNQVAVQAVIWSAAPRPGTTKEQKAPRYQPAAPPCSANVWVWQYGRDAEVCPVDTNLADRRLLDFLY,soluble
15,MARGREAVTLLLVGWGYAPGMQTLEALDAVRRADVVYVESYTMPGSSWLYKSVVEAAGEARVVEASRRDLEERSREIVSRALDAVVAVVTAGDPMVATTHSSLAAEALEAGVAVRYIPGVSGVQAARGATMLSFYRFGGTVTLPGPWRGVTPISVARRIYLNLCAGLHTTALLDVDERGVQLSPGQGVSLLLEADREYAREAGAPALLARLPSVLVEAGAGGGHRVLYWSSLERLSTADVEGGVYSIVIPARLSGVEEWLLAAASGQRRPLEYDRSVYETVEENCKKGVYMEPV,soluble
16,MARLKTAQPNSSLRKIAVVVATAVSGMSVYAQAAVQPKEETITVTAAPAAQESAWGPAPTIAAKRSATTTKTDTPIEKTPQSVSVVTNEEMQMHQFQSVKEALGYTPGVTVSSRGASNTYDFVIIRGFSSVGLSQNNYLDGLKLQGNFYNDAVIDPYMLERVELMRGPTSVLYGKSNPGGIISMVSKRPTTEPLKEIQFKMGTDNLFQTGFDFSDSLDDNGEFSYRLTGLARSTNEQQKSSESQRYAIAPSFTWRPDEKTNFTFLSYFQNEPETGYYGWLPKEGTVEPLPNGKRLPTDFNEGASNNTYSRNEKMVGYSFEHGFNDTFTVRQNLRFVEMKTAQKSVYGTGIAADGHTLNRGTIVDNERLQNFSVDTQLESKFATGDIDHTLLTGVDFMRMRNDINATFGSAPSIDLYNNYHPEYFAFGGAEPYQMNESKQTGLYVQDQAEWNKWVFTLGGRYDWSKQATTVRQNSTTPTEGYIERNDHQFTWRGGVNYVFDNGISPYFSYSQSFEPSAFDLWSTPRVSYKPSKGEQYEAGVKYVPKDMPVVVTGAVYQLTKTNNLTADPTNPLAQVPAGEIRARGVELEAKAALTANINMTASYTYTDAEYTKDTNLKGNTPEQVPEHMASLWGDYTFNEGPLSGLTLGTGGRFIGSSYGDPANSFKVGSAAVMDAVVKYDLARFGMAGSSIAVNVNNLLDREYVASCFQTYGCFWGAERQVVATATFRF,not soluble
17,MARMKARSAKGKRVAKDTWKSKVWYDIYTPQSFGGDVIGQTPANDPANLIGRISEISLRDLTNEHSKHMTRMYFKVDGVSGNNATSQFVGHDTTREYLKSQVRRRRSKINAIVEVRTKDGFKVRVKALVLTAVRARDHHKTEIRVRMEQIIKEMAKETPFAEFVHAMLMGGLGSKIYGDCKKMFPLKRVEIFKSEVIEFGKAAEAPVEEAAAEEVVEEAAAETQELEHHHHHH,soluble
18,MASFVEMRKLAEAKVQNMIRTIVKPKEQNGNVEPKKEEDEKFESTYKQNENTQITPSSFGKRPLYSKVDINCDKWLMTLDEESRLKIDNPPSLVDGLSKETESELRYLGCELIQQGAILLKLPQTAAATGQILFQRYYYQKSFVRYHFEHAVQACLLLASKIEEEPRRPREVYNVFHRLERLHRLQQSGHDINKRLEAKHGSSILRCFG,not soluble
19,MASGASATQRIPSKRQTLDEAYAPPANFLEIEVINPITHGVGKMRYTDYEIRMRSNLPVFKQKESSVRRRYSDFEWVRAELERDSKIVVPTLPGKSFKRQLPFRSDDGIFEEEFIENRRKALELFINKVAGHPLAQNERSLHIFLQEPTIDKNYVPGKIRTA,soluble
20,MASGKVRCTRKLRSWIVEQVESGHFPGVCWDDAAKTMFRIPWKHAGKQDFREDQDAAIFKAWALFKEKHKDGDIGHPAVWKTRLRCALNKSSEFEEVPERGRMDVAEPYKVYRILPAGTLPNQPRNQKSPCKRSISCVSPEREENMENGRTNGVVNHSDSGSNIGGGGNGSNRSDSNSNCNSELEEGAGTTEATIREDPVFLEHQLPLNSDYSLLLTFIYGGRVVGKTQVHSLDCRLVAERSDSESSMEQVEFPKPDPLEPTQHLLNQLDRGVLVASNSRGLFVQRLCPIPISWNAPEAPPGPGPHLLPSNKCVELFKTTYFCRDLAQYFQGQGPPPKFQATLHFWEESPGSSHSQENLITVQMEQAFARHLLEKIPEEEKAALFLLQHTEQSPSALGH,soluble
